Source: US20150253335

Legend:
[1] = system: coumarin-PPant labeled FITC-ybbR conjugate
[2] = system: crypto-A. orientalis CepK labeled with coumarin-PPant
[3] = system: crypto-A. parasiticus PksA carrier protein labeled with coumarin-PPant
[4] = system: crypto-E. coli AcpP (type II FAS acyl carrier protein labeled with coumarin-PPant)
[5] = system: crypto-FITC-ybbR (rhodamine WT PPant-labeled FITC-ybbR)
[6] = system: crypto-G. fujikuroi Pks4 carrier protein labeled with coumarin-PPant
[7] = system: crypto-L. majuscula JamC labeled with coumarin-PPant
[8] = system: crypto-L. majuscula JamF labeled with coumarin-PPant
[9] = system: crypto-M. tuberculosis AcpM (Type II) labeled with coumarin-PPant
[10] = system: crypto-MBP-PaAcpP (MBP fusion of P. aeruginosa AcpP labeled with coumarin-PPant)
[11] = system: crypto-P. agglomerans AdmA labeled with coumarin-PPant
[12] = system: crypto-P. agglomerans AdmI labeled with coumarin-PPant
[13] = system: crypto-P. falciparum apicoplast ACP (Type II) labeled with coumarin-PPant
[14] = system: crypto-P. fluorescens PltL labeled with coumarin-PPant
[15] = system: crypto-P. syringae SyrB1 labeled with coumarin-PPant
[16] = system: crypto-S. coelicolor ActACP labeled with coumarin-PPant
[17] = system: crypto-V. cholerae VibB labeled with coumarin-PPant
[18] = system: crypto-ybbR free peptide (coumarin-PPant labeled 11 amino acid ybbR)
[19] = system: crypto-ybbR-eGFP fusion with N-terminal 6xHis and C-terminal GFP (coumarin-PPant labeled)
[20] = system: crypto-ybbR-eGFP fusion with N-terminal GFP and C-terminal 6xHis (coumarin-PPant labeled)
[21] = system: holo-SoAcpP (S. oneidensis type II FAS AcpP)
[22] = system: crypto-GFP-ACP (rhodamine-PPT labeled fusion of E. coli ACP with GFP)
[23] = system: crypto-Lux-ACP (rhodamine-PPT labeled fusion of bacterial luciferase with E. coli ACP)
[24] = system: crypto-MBP-PaACP (rhodamine-PPT labeled MBP fusion of P. aeruginosa ACP)

Substance	AcpH activity with modified ybbR peptide [1]	AcpH qualitative CP activity [2]	AcpH qualitative CP activity [3]	AcpH qualitative CP activity [4]	AcpH qualitative CP activity [6]	AcpH qualitative CP activity [7]	AcpH qualitative CP activity [8]	AcpH qualitative CP activity [9]	AcpH qualitative CP activity [10]	AcpH qualitative CP activity [11]	AcpH qualitative CP activity [12]	AcpH qualitative CP activity [13]	AcpH qualitative CP activity [14]	AcpH qualitative CP activity [15]	AcpH qualitative CP activity [16]	AcpH qualitative CP activity [17]	AcpH activity with modified ybbR peptide [18]	AcpH activity with modified ybbR peptide [19]	AcpH activity with modified ybbR peptide [20]	AcpH qualitative CP activity [21]	other results
acyl carrier protein hydrolase (AcpH) from Cyanothece PCC 7822	YES	no	YES	YES	no	YES	no	YES	YES	no	no	YES	no	no	no	no	YES	YES	YES	YES^†	Km [5]: 21 µM; Vmax [5]: 0.004 min⁻¹; kcat [5]: 6.67e-05 s⁻¹; kcat/KM [5]: 3.33 M⁻¹ s⁻¹; Km (holo-E. coli AcpP): 58 µM; Vmax (holo-E. coli AcpP): 1.1 min⁻¹; kcat (holo-E. coli AcpP): 3.52 s⁻¹; kcat/KM (holo-E. coli AcpP): 60000 M⁻¹ s⁻¹
acyl carrier protein hydrolase (AcpH) from Pseudomonas aeruginosa PAO1	no	no	YES	YES	no	YES	no	YES	YES	no	no	YES	YES	no	no	no	no	no	no	YES^†	Km [5]: 177 µM; Vmax [5]: 0.008 min⁻¹; kcat [5]: 0.000133 s⁻¹; kcat/KM [5]: 0.783 M⁻¹ s⁻¹; removal of rhodamine-PPT from ACP fusion protein [22]: AcpH removed rhodamine-PPT from ACP attached to three different fusion partners ... a C-terminal green fluorescent protein (GFP); removal of rhodamine-PPT from ACP fusion protein [23]: AcpH removed rhodamine-PPT from ACP attached to three different fusion partners ... an N-terminal bacterial luciferase fusion (Lux-ACP); removal of rhodamine-PPT from ACP fusion protein [24]: AcpH removed rhodamine-PPT from ACP attached to three different fusion partners, an N-terminal maltose binding protein (MBP); AcpH activity with NRPS-type peptidyl carrier proteins [14]: The observed partial activity resulted from PaAcpH with PltL; Km (holo-E. coli AcpP): 12 µM; Vmax (holo-E. coli AcpP): 0.59 min⁻¹; kcat (holo-E. coli AcpP): 0.00983 s⁻¹; kcat/KM (holo-E. coli AcpP): 817 M⁻¹ s⁻¹
acyl carrier protein hydrolase (AcpH) from Pseudomonas fluorescens NCIMB 10586	YES	no	YES	YES	YES	YES	no	YES	YES	no	YES	YES	no	no	YES	no	YES	YES	YES	YES^†	Km [5]: 48 µM; Vmax [5]: 0.17 min⁻¹; kcat [5]: 0.00283 s⁻¹; kcat/KM [5]: 50 M⁻¹ s⁻¹
annotated hypothetical AcpH homolog from Shewanella oneidensis MR-1	no	no	no	no	no	no	no	no	no	no	no	no	no	no	no	no	no	no	no	no	Vmax (holo-E. coli AcpP): NC†
